According to US11464867B2, “Multimeric elastin-like polypeptides” (University of Southern California, priority 2018, dated 2022):

Experiments:
[1] = Phase transition temperature by optical density (UV-Vis, 350 nm) versus temperature; format: physicochemical; settings: 25 μM; Table 5
Procedure: The temperature with the maximum positive slope was defined as the phase transition temperature for each condition. (FIG. 2B) The concentration-temperature phase diagram was determined for both ELPs, and fit to the following equation: Tt=b−m Log10[CELP].
Both ELPs at different concentrations (5 μM to 100 μM) were subject to a precisely controlled temperature increase from 25 to 75° C. at a rate of 1° C./min. The Tt of ELPs is defined as the temperature at which the first derivative of the optical density with respect to the temperature reaches a maximum.

[2] = ATRA encapsulation in 4PA, two phase method, HPLC; format: physicochemical; settings: theoretical maximum 4
From the text: FIG. 21: SDS PAGE was used to resolve the purified 4PA fusion protein. To formulate ATRA-loaded 4PA, a two phase encapsulation method was adopted. After removing undissolved drug, HPLC was used to quantify 4PA and ATRA concentrations. Encapsulation ratio, defined as CATRA/C4PA was 2.7, theoretical maximum being 4.

BT-474 orthotopic tumors = assay: Orthotopic BT-474 tumors in nude mice; format: in vivo; settings: 1 mg/kg every other day for 4 weeks
From the text: FIGS. 25A-25B: show results of administration of FAF formulations when tested for efficacy and safety in nude mice bearing orthotopic tumors of BT-474 cell line. Oral Eve at the same drug dose served as a clinically relevant control.
Accounting for nearly 40,000 deaths per year, breast cancer is the second deadliest cancer affecting American women. Everolimus (Eve), an analog of Rapamycin is approved to treat HR+/HER2− subtype in combination with exemestane. Currently administered as an oral formulation, Eve suffers from poor physico-chemical properties and toxicity issues like Rapamycin. Novel FAF formulations were tested for efficacy and safety in nude mice bearing orthotopic tumors of BT-474 cell line. Being a HR+ cell line, BT-474 represents nearly 80% of clinically diagnosed breast cancer. Oral Eve at the same drug dose served as a clinically relevant control. […] This is presumably a result of Eve's poor oral bioavailability.

[3] = system: HR+/HER2− breast cancer patients; settings: in combination with exemestane; cited from earlier work
male NOD mice = assay: Lymphocytic infiltration of the lacrimal gland in male NOD mice (Sjögren's syndrome model); format: in vivo; settings: SC 1.0 mg Rapa/kg every other day for 2 weeks
Procedure: FIGS. 23A-23C: FAF-Rapa reduces lymphocytic infiltration in the LG of male NOD mice, FIG. 23A: identity, purity and fluorescence of FAF, FAF-Rapa and rhodamine-labeled FAF-Rapa (Rho-FAF-Rapa) were analyzed by Comassie blue staining and fluorescence imaging of SDS-PAGE. FIG. 23B: One LG from each mouse was collected at the conclusion of the study. Sections from 25th, 50th and 75th percentile sections from each LG were quantified by a blinded observer to determine the average percentage area of infiltrate per gland. Glands from 4 treatment groups (n=15) were compared. Inflamed LG show areas of purple nuclear staining, which indicate foci of infiltrating lymphocytes (outlined in blue). Severe lymphocytic infiltration was reduced by FAF-Rapa (middle panel). Scale bar represents 200 μm. FIG. 23C: The percent area of infiltration was calculated using ImageJ (mean±SD). A Kruskal-Wallis non-parametric test was used to compare groups.
SS is a chronic autoimmune disease that affects about 4 million people in the US. Lymphocytic infiltration and inflammation in the exocrine glands, mainly lacrimal gland (LG) and salivary gland causes severe forms of dry eyes and dry mouth. […] Following this, the LG from all mice were sectioned, stained and lymphocytic infiltration was quantified.

MDA-MB-468 cells = assay: Split luciferase reporter for cytosolic Rapa; format: cell-based
From the text: FIGS. 22A-22B: FAF delays the access of Rapa to the cytosol in a manner consistent with macropinocytosis. FIG. 22A: MDA-VB-468 cells were transfected with a split luciferase reporter that enables the specific detection of Rapa within the cytosol. […] Free Rapa luminescence kinetics were unaffected by amiloride. (Mean±95% CI, n=6).
To understand drug release, cells were engineered to express a luciferase reporter for cytosolic Rapamycin. […] This is evidence that FAF dominates the intracellular delivery of rapalogues.

MDA-MB-468 cell line = assay: Cellular uptake of FAF; format: cell-based; settings: concentrations up to 100 μM

## 4PA: 4 Pin1 domains linked by ELP A24, SEQ ID NO: 15
[1]
  Transition temperature at 25 μM: 52.8 °C
[2]
  Encapsulation ratio, CATRA/C4PA: 2.7

## CO[C@H]1C[C@@H]2CC[C@@H](C)[C@@](O)(O2)C(=O)C(=O)N2CCCC[C@H]2C(=O)O[C@H]([C@H](C)C[C@@H]2CC[C@@H](OCCO)[C@H](OC)C2)CC(=O)[C@H](C)/C=C(\C)[C@@H](O)[C@@H](OC)C(=O)[C@H](C)C[C@H](C)/C=C/C=C/C=C/1C [Eve, Everolimus]
BT-474 orthotopic tumors
  tumor growth compared to PBS treated mice: not statistically significant
[3]
  patients with adverse events necessitating discontinuation of treatment: 10 % of patients
  patients with adverse events necessitating dose reduction: 75 % of patients

## CO[C@H]1C[C@@H]2CC[C@@H](C)[C@@](O)(O2)C(=O)C(=O)N2CCCC[C@H]2C(=O)O[C@H]([C@H](C)C[C@@H]2CC[C@@H](O)[C@H](OC)C2)CC(=O)[C@H](C)/C=C(\C)[C@@H](O)[C@@H](OC)C(=O)[C@H](C)C[C@H](C)/C=C/C=C/C=C/1C [Rapa, Rapamycin]
Male NOD mice
  suppression of lymphocytic infiltration compared to vehicle: 2.7 fold

## FAF: FKBP fused to each terminus of ELP A192, SEQ ID NO: 25
[1]
  Transition temperature at 25 μM: 55.1 °C
MDA-MB-468 cells
  delay of cytosolic access of Rapa versus free drug: about a half-hour
MDA-MB-468 cells; macropinocytosis inhibitor amiloride added
  effect of amiloride on cytosolic detection of Rapa: completely suppressed
MDA-MB-468 cell line
  saturation of cellular uptake: no dose-dependent saturation
SC, Non-compartment
  MAT: 9.6 h
mouse, in vivo, iv
  elimination half-life: about 7 hrs
mouse, in vivo, sc
  MRT: 20.3 h
  Tmax: 12 h
